Target: the molecule itself
Assay: SEC-MALS; MALLS-SEC of purified GST-core RAG2 (0.01-0.03 mg), kept at 4°C before SEC; Superdex 200; 25 mM Tris pH 8.0, 150 mM KCl, 2 mM dithiothreitol; 40-200 nM in Peak 2

B1: GST-core RAG2 (domain or fragment, UniProt P21784 1-387, looked up)
chain: MSLQMVTVGHNIALIQPGFSLMNFDGQVFFFGQKGWPKRSCPTGVFHFDIKQNHLKLKPAIFSKDSCYLPPLRYPATCSYKGSIDSDKHQYIIHGGKTPNNELSDKIYIMSVACKNNKKVTFRCTEKDLVGDVPEPRYGHSIDVVYSRGKSMGVLFGGRSYMPSTQRTTEKWNSVADCLPHVFLIDFEFGCATSYILPELQDGLSFHVSIARNDTVYILGGHSLASNIRPANLYRIRVDLPLGTPAVNCTVLPGGISVSSAILTQTNNDEFVIVGGYQLENQKRMVCSLVSLGDNTIEISEMETPDWTSDIKHSKIWFGSNMGNGTIFLGIPGDNKQAMSEAFYFYTLRCSEEDLSEDQKIVSNSQTSTEDPGDSTPFEDSEEFCFS
notes: RAG2 core region; core RAG2 portion printed as 42.6 kDa; Predicted monomer mass 68.9 kDa; The authors put the dimeric state down to the GST moiety, which is known to dimerize; also called core RAG2 fused to glutathione S-transferase; GST-RAG2
  stoichiometry N: 2
